Starred links: 1 amine or outer side, 2 acyl side, 3 side chain; linkers in the order of their positions; H or OH if unused. Non-standard residues stand in square brackets, D forms with d. *: point of attachment. Trp(6-Me) = Cc1ccc2c(C[C@H](N)C(=O)O)c[nH]c2c1; Trp(7-F) = N[C@@H](Cc1c[nH]c2c(F)cccc12)C(=O)O; Trp(7-Me) = Cc1cccc2c(C[C@H](N)C(=O)O)c[nH]c12; d(γGlu) = O=C(O)[C@@H](CCC(=O)[*:2])N[*:1]; C18 diacid = O=C(O)CCCCCCCCCCCCCCCCC(=O)*; γGlu = O=C(O)[C@H](CCC(=O)[*:2])N[*:1]; Palmitoyl = CCCCCCCCCCCCCCCC(=O)*; 3Pal = N[C@@H](Cc1cccnc1)C(=O)O; Nle = CCCC[C@H](N)C(=O)O; AEEA = NCCOCCOCC(=O)O; Aib = CC(C)(N)C(=O)O; Ava = NCCCCC(=O)O; Sar = CNCC(=O)O
Target: human GRP receptor (human, UniProt P30550 1-384)
Sequence (P30550 whole entry): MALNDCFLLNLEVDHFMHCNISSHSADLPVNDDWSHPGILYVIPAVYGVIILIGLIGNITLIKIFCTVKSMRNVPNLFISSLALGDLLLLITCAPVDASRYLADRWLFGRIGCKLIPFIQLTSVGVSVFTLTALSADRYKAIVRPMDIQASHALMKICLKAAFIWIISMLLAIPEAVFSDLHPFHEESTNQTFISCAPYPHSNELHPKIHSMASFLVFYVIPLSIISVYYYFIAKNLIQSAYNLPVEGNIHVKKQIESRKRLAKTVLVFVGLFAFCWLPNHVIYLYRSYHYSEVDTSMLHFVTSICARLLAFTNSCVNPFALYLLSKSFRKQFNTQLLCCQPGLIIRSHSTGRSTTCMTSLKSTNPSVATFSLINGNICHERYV
Assay: cell-based or functional assay

Binder	hIP1 GRPR EC50
{C18 diacid}-[d(γGlu)][AEEA][AEEA][AEEA][AEEA]GNH[Trp(7-Me)]AV[dA]HL-NH2 (SMILES Cc1cccc2c(C[C@H](NC(=O)[C@H](Cc3c[nH]cn3)NC(=O)[C@H](CC(N)=O)NC(=O)CNC(=O)COCCOCCNC(=O)COCCOCCNC(=O)COCCOCCNC(=O)COCCOCCNC(=O)CC[C@@H](NC(=O)CCCCCCCCCCCCCCCCC(=O)O)C(=O)O)C(=O)N[C@@H](C)C(=O)N[C@H](C(=O)N[C@H](C)C(=O)N[C@@H](Cc3c[nH]cn3)C(=O)N[C@@H](CC(C)C)C(N)=O)C(C)C)c[nH]c12) [Peptide 78]	14 nM
{C18 diacid}-[γGlu][AEEA][AEEA]GNH[Trp(7-Me)]AV[dA]HL[Nle]-NH2 (SMILES CCCC[C@H](NC(=O)[C@H](CC(C)C)NC(=O)[C@H](Cc1c[nH]cn1)NC(=O)[C@@H](C)NC(=O)[C@@H](NC(=O)[C@H](C)NC(=O)[C@H](Cc1c[nH]c2c(C)cccc12)NC(=O)[C@H](Cc1c[nH]cn1)NC(=O)[C@H](CC(N)=O)NC(=O)CNC(=O)COCCOCCNC(=O)COCCOCCNC(=O)CC[C@H](NC(=O)CCCCCCCCCCCCCCCCC(=O)O)C(=O)O)C(C)C)C(N)=O) [Peptide 85]	14.7 nM
{C18 diacid}-[d(γGlu)][AEEA][AEEA]GNH[Trp(6-Me)]AV[dA]HL[Nle]-NH2 (SMILES CCCC[C@H](NC(=O)[C@H](CC(C)C)NC(=O)[C@H](Cc1c[nH]cn1)NC(=O)[C@@H](C)NC(=O)[C@@H](NC(=O)[C@H](C)NC(=O)[C@H](Cc1c[nH]c2cc(C)ccc12)NC(=O)[C@H](Cc1c[nH]cn1)NC(=O)[C@H](CC(N)=O)NC(=O)CNC(=O)COCCOCCNC(=O)COCCOCCNC(=O)CC[C@@H](NC(=O)CCCCCCCCCCCCCCCCC(=O)O)C(=O)O)C(C)C)C(N)=O) [Peptide 79]	529 nM
{C18 diacid}-[d(γGlu)][AEEA][AEEA]GK(Ac)HWAV[dA]HL[Nle][Sar]-NH2 (SMILES CCCC[C@H](NC(=O)[C@H](CC(C)C)NC(=O)[C@H](Cc1c[nH]cn1)NC(=O)[C@@H](C)NC(=O)[C@@H](NC(=O)[C@H](C)NC(=O)[C@H](Cc1c[nH]c2ccccc12)NC(=O)[C@H](Cc1c[nH]cn1)NC(=O)[C@H](CCCCNC(C)=O)NC(=O)CNC(=O)COCCOCCNC(=O)COCCOCCNC(=O)CC[C@@H](NC(=O)CCCCCCCCCCCCCCCCC(=O)O)C(=O)O)C(C)C)C(=O)N(C)CC(N)=O) [Peptide 77]	184 nM
{C18 diacid}-[d(γGlu)][Ava]GNHWAV[dA]HL[Nle]-NH2 (SMILES CCCC[C@H](NC(=O)[C@H](CC(C)C)NC(=O)[C@H](Cc1c[nH]cn1)NC(=O)[C@@H](C)NC(=O)[C@@H](NC(=O)[C@H](C)NC(=O)[C@H](Cc1c[nH]c2ccccc12)NC(=O)[C@H](Cc1c[nH]cn1)NC(=O)[C@H](CC(N)=O)NC(=O)CNC(=O)CCCCNC(=O)CC[C@@H](NC(=O)CCCCCCCCCCCCCCCCC(=O)O)C(=O)O)C(C)C)C(N)=O) [Peptide 80]	5.11 nM
Palmitoyl-[γGlu][AEEA][AEEA]GRHWAV[dA]HL[Nle]-NH2 (SMILES CCCCCCCCCCCCCCCC(=O)N[C@@H](CCC(=O)NCCOCCOCC(=O)NCCOCCOCC(=O)NCC(=O)N[C@@H](CCCNC(=N)N)C(=O)N[C@@H](Cc1c[nH]cn1)C(=O)N[C@@H](Cc1c[nH]c2ccccc12)C(=O)N[C@@H](C)C(=O)N[C@H](C(=O)N[C@H](C)C(=O)N[C@@H](Cc1c[nH]cn1)C(=O)N[C@@H](CC(C)C)C(=O)N[C@@H](CCCC)C(N)=O)C(C)C)C(=O)O) [Peptide 89]	1.57 nM
{C18 diacid}-[γGlu][AEEA][AEEA]GNH[Trp(7-F)]AV[dA]HL[Nle]-NH2 (SMILES CCCC[C@H](NC(=O)[C@H](CC(C)C)NC(=O)[C@H](Cc1c[nH]cn1)NC(=O)[C@@H](C)NC(=O)[C@@H](NC(=O)[C@H](C)NC(=O)[C@H](Cc1c[nH]c2c(F)cccc12)NC(=O)[C@H](Cc1c[nH]cn1)NC(=O)[C@H](CC(N)=O)NC(=O)CNC(=O)COCCOCCNC(=O)COCCOCCNC(=O)CC[C@H](NC(=O)CCCCCCCCCCCCCCCCC(=O)O)C(=O)O)C(C)C)C(N)=O) [Peptide 86]	17.6 nM
EXXGNHWAVGHLM (Octadecanedioyl-D-γGlu-OEG-OEG-Gly-Asn-His-Trp-Ala-Val-Gly-His-Leu-Met-NH2) [Peptide 5]	7.5 nM
Palmitoyl-[γGlu][AEEA][AEEA][AEEA][AEEA]GN[3Pal][Trp(7-Me)]AV[dA]HL[Nle]-NH2 (SMILES CCCCCCCCCCCCCCCC(=O)N[C@@H](CCC(=O)NCCOCCOCC(=O)NCCOCCOCC(=O)NCCOCCOCC(=O)NCCOCCOCC(=O)NCC(=O)N[C@@H](CC(N)=O)C(=O)N[C@@H](Cc1cccnc1)C(=O)N[C@@H](Cc1c[nH]c2c(C)cccc12)C(=O)N[C@@H](C)C(=O)N[C@H](C(=O)N[C@H](C)C(=O)N[C@@H](Cc1c[nH]cn1)C(=O)N[C@@H](CC(C)C)C(=O)N[C@@H](CCCC)C(N)=O)C(C)C)C(=O)O) [Peptide 91]	3.72 nM
{C18 diacid}-[d(γGlu)][AEEA][AEEA]GNH[Trp(6-Me)]AV[dA]HL[Nle][Sar]-NH2 (SMILES CCCC[C@H](NC(=O)[C@H](CC(C)C)NC(=O)[C@H](Cc1c[nH]cn1)NC(=O)[C@@H](C)NC(=O)[C@@H](NC(=O)[C@H](C)NC(=O)[C@H](Cc1c[nH]c2cc(C)ccc12)NC(=O)[C@H](Cc1c[nH]cn1)NC(=O)[C@H](CC(N)=O)NC(=O)CNC(=O)COCCOCCNC(=O)COCCOCCNC(=O)CC[C@@H](NC(=O)CCCCCCCCCCCCCCCCC(=O)O)C(=O)O)C(C)C)C(=O)N(C)CC(N)=O) [Peptide 84]	2550 nM
Palmitoyl-[γGlu][AEEA][AEEA]GNH[Trp(7-F)]AV[dA]HL[Nle]-NH2 (SMILES CCCCCCCCCCCCCCCC(=O)N[C@@H](CCC(=O)NCCOCCOCC(=O)NCCOCCOCC(=O)NCC(=O)N[C@@H](CC(N)=O)C(=O)N[C@@H](Cc1c[nH]cn1)C(=O)N[C@@H](Cc1c[nH]c2c(F)cccc12)C(=O)N[C@@H](C)C(=O)N[C@H](C(=O)N[C@H](C)C(=O)N[C@@H](Cc1c[nH]cn1)C(=O)N[C@@H](CC(C)C)C(=O)N[C@@H](CCCC)C(N)=O)C(C)C)C(=O)O) [Peptide 87]	1.73 nM
{C18 diacid}-[γGlu][AEEA][AEEA][AEEA][AEEA]GNH[Trp(7-Me)]AV[dA]HL[Nle]-NH2 (SMILES CCCC[C@H](NC(=O)[C@H](CC(C)C)NC(=O)[C@H](Cc1c[nH]cn1)NC(=O)[C@@H](C)NC(=O)[C@@H](NC(=O)[C@H](C)NC(=O)[C@H](Cc1c[nH]c2c(C)cccc12)NC(=O)[C@H](Cc1c[nH]cn1)NC(=O)[C@H](CC(N)=O)NC(=O)CNC(=O)COCCOCCNC(=O)COCCOCCNC(=O)COCCOCCNC(=O)COCCOCCNC(=O)CC[C@H](NC(=O)CCCCCCCCCCCCCCCCC(=O)O)C(=O)O)C(C)C)C(N)=O) [Peptide 90]	12.6 nM
{C18 diacid}-[γGlu][AEEA][AEEA]GRHWAV[dA]HL[Nle]-NH2 (SMILES CCCC[C@H](NC(=O)[C@H](CC(C)C)NC(=O)[C@H](Cc1c[nH]cn1)NC(=O)[C@@H](C)NC(=O)[C@@H](NC(=O)[C@H](C)NC(=O)[C@H](Cc1c[nH]c2ccccc12)NC(=O)[C@H](Cc1c[nH]cn1)NC(=O)[C@H](CCCNC(=N)N)NC(=O)CNC(=O)COCCOCCNC(=O)COCCOCCNC(=O)CC[C@H](NC(=O)CCCCCCCCCCCCCCCCC(=O)O)C(=O)O)C(C)C)C(N)=O) [Peptide 88]	5.51 nM
{C18 diacid}-[d(γGlu)][AEEA][AEEA][AEEA][AEEA]GN[3Pal]WAV[dA]HL[Nle]-NH2 (SMILES CCCC[C@H](NC(=O)[C@H](CC(C)C)NC(=O)[C@H](Cc1c[nH]cn1)NC(=O)[C@@H](C)NC(=O)[C@@H](NC(=O)[C@H](C)NC(=O)[C@H](Cc1c[nH]c2ccccc12)NC(=O)[C@H](Cc1cccnc1)NC(=O)[C@H](CC(N)=O)NC(=O)CNC(=O)COCCOCCNC(=O)COCCOCCNC(=O)COCCOCCNC(=O)COCCOCCNC(=O)CC[C@@H](NC(=O)CCCCCCCCCCCCCCCCC(=O)O)C(=O)O)C(C)C)C(N)=O) [Peptide 83]	109 nM
GNHWAVXHLX (Gly-Asn-His-Trp-Ala-Val-D-Ala-His-Leu-Nle-NH2) [Peptide 6]	26.8 nM
{C18 diacid}-[d(γGlu)][AEEA][AEEA]GNHWAV[dA]HL[Nle][Aib]-NH2 (SMILES CCCC[C@H](NC(=O)[C@H](CC(C)C)NC(=O)[C@H](Cc1c[nH]cn1)NC(=O)[C@@H](C)NC(=O)[C@@H](NC(=O)[C@H](C)NC(=O)[C@H](Cc1c[nH]c2ccccc12)NC(=O)[C@H](Cc1c[nH]cn1)NC(=O)[C@H](CC(N)=O)NC(=O)CNC(=O)COCCOCCNC(=O)COCCOCCNC(=O)CC[C@@H](NC(=O)CCCCCCCCCCCCCCCCC(=O)O)C(=O)O)C(C)C)C(=O)NC(C)(C)C(N)=O) [Peptide 82]	1230 nM
{C18 diacid}-[d(γGlu)][AEEA][AEEA]GNH[Trp(7-Me)]AV[dA]HL[Nle][Sar]-NH2 (SMILES CCCC[C@H](NC(=O)[C@H](CC(C)C)NC(=O)[C@H](Cc1c[nH]cn1)NC(=O)[C@@H](C)NC(=O)[C@@H](NC(=O)[C@H](C)NC(=O)[C@H](Cc1c[nH]c2c(C)cccc12)NC(=O)[C@H](Cc1c[nH]cn1)NC(=O)[C@H](CC(N)=O)NC(=O)CNC(=O)COCCOCCNC(=O)COCCOCCNC(=O)CC[C@@H](NC(=O)CCCCCCCCCCCCCCCCC(=O)O)C(=O)O)C(C)C)C(=O)N(C)CC(N)=O) [Peptide 81]	505 nM

From patent US20260176319A1 (KALLYOPE, published 2026)
